{
  "source": "patent US20040052799A1",
  "about": "“Nucleic acid and amino acid sequences relating to Helicobacter pylori for diagnostics and therapeutics” (Astra Aktiebolag, priority 1996, published 2004)",
  "key": {"H. pylori (strain AH244)": {"test_system": "H. pylori (strain AH244)", "type": "in vivo", "details": "BALB/c mice infected with strain AH244, 100 μg antigen + 10 μg CT orally, compared to control; FIGS. 3 and 4"}, "H. pylori": {"test_system": "H. pylori", "test": "Protective oral immunization and challenge with live H. pylori, quantitative urease assay and bacterial colony counts of gastric tissue", "type": "in vivo, C57BL/6 mice", "experimental": "A murine model of H. pylori infection was produced by infection of C57BL/6 mice with H. pylori Sydney strain SS1 and was used to assess the efficacy of recombinant H. pylori vac36. […] Dose-response studies have shown 100% infection rates of inbred C57BL/6 and Balb/C mice at 8 weeks post-challenge with a single inoculation of […] organisms.\nThe presence of H. pyloriorganisms in gastric tissue was determined by culture of gastric tissue and by a quantitative urease assay. In the latter method, a longitudinal segment of antrum, representing approximately ¼ of the total antral region was placed in 1 ml of urea broth. After 4 hr, the extent of color change resulting from urea hydrolysis and increased pH was quantiated by spectrophotometric measurement of A550 (Fox et al., Immunol. 88:400-406, 1996). The assay sensitivity is ˜10^3 H. pylori organisms. A positive (H. pylori-infected) gastric tissue was defined as that sample showing 2 standard deviations above the mean A550 value derived from a group of unchallenged uninfected age-matched control mice.\n(§1) Protective activity of purified recombinant H. pylori vac36 (SEQ ID NO: 5146) antigen The ability of purified recombinant vac36 (SEQ ID NO: 5146) antigen derived from H. pylori to interfere with the establishment of an H. pylori infection was examined in mice. […]. The mice were challenged 2 weeks later on 3 consecutive days by oral administration of 10^8 H. pylori organisms. The experiment was terminated 2 weeks post-challenge, and the H. pylori infection level assessed by bacterial colony counts and by quantitative urease assays."}, "[1]": {"test_system": "CD4+ or CD8+ T cells and IgA containing (IgACC) plasma cells in gastric tissue", "test": "Local gastric immune response to immunization, immunostaining of gastric cryosections", "type": "in vivo, C57BL/6 mice", "description": "Longitudinal sections of gastric tissues from the esophageal to the duodenal junction were embedded in OCT embedding compound, frozen in liquid nitrogen, and cryosections immunostained with monoclonal antibodies recognizing CD4^+ or CD8^+T cells or with antisera against mouse IgA for identification of IgA containing (IgACC) plasma cells (Pappo et al., Infect. Immun. 63:1246-1252, 1995). The degree of local gastric immune response was expressed quantitatively as the number of CD4^+, CD8^+ or IgACC cells per mm^2 of gastric region examined.\nas §1"}, "[2]": {"target": "T1, H. pylori peptidyl-propyl cis-trans isomerase (PPIase) (Helicobacter pylori, UniProt Q9ZJH5)", "T1 construct": "His-Tag (N); made in house; host or cells: E. coli BL21(DE3)", "T1 sequence (Q9ZJH5 whole entry, looked up)": "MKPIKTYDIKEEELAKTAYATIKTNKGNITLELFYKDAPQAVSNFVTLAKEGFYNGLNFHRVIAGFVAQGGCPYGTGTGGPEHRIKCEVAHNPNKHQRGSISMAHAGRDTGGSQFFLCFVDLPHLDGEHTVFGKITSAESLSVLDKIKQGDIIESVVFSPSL", "test": "PPIase enzymatic assay, α-chymotrypsin coupled, succinyl-Ala-Ala-Pro-Phe-p-nitroanilide", "type": "biochemical", "description": "The assay is essentially as described by Fisher (Fischer, G., et. al. (1984) Biomed. Biochim. Acta 43:1101-1111). The assay measures the cis-trans isomerization of the Ala-Pro bond in the test peptide N-succinyl-Ala-Ala-Pro-Phe-p-nitroanilide (Sigma # S-7388, lot # 84H5805). The assay is coupled with α-chymotrypsin, where the ability of the protease to cleave the test peptide occurs only when the Ala-Pro bond is in trans. The conversion of the test peptide to the trans isomer in the assay is followed at 390 nm on a Beckman Model DU-650 spectophotometer. The data are collected every second with an average scanning of time of 0.5 second. Assays are carried out in 35 mM Hepes, pH 8.0, in a final volume of 400 ul, with 10 μM α-chymotrypsin (type 1-5 from bovine Pancreas, Sigma # C-7762, lot 23H7020) and 10 nM PPIase. To initiate the reaction, 10 μl of the substrate (2 mM N-Succinyl-Ala-Ala-Pro-Phe-p-nitroanilide in DMSO) is added to 390 μl of reaction mixture at room temperature.\nThe PPIase activity was assayed using the chromogenic tetrapeptide substrate succinyl-Ala-Ala-Pro-Phe-p-nitroanilide. An initial velocity of 4.9 μmole/min/mg protein was measured with the purified enzyme (FIG. 5). This corresponds to a kcat of 1.6 sec^−1 which is similar to the one obtained for the E. coli PPIase (Liu, J. and Walsh, C. T. (1990) Proc. Natl. Acad. Sci. USA 87:4028-4032) and the one from porcine kidney (Fischer, G. (1989) Nature 337:476-478).\nThe recombinant protein has a high catalytic efficiency of 2.06×10^9 M^−1 s^−1 when the assay is measured at 25° C. These values are one to two orders of magnitude higher than that observed for other characterized PPIases. However, in those studies, the ppiase assay was conducted at 10° C., which may account for the discrepency."}, "[3]": {"details": "mean number of cells/mm^2 of gastric region ± SEM, immunized mice upon challenge with H. pylori"}},
  "note": "Marks after values point to notes of the source that are not given here.",
  "data": [
    {"molecule": "SEQ ID NO: 880: H. pylori antigen of the therapeutic immunization study; number does not match the antigen list of Tables 6 and 7 (protein, listed as Helicobacter pylori, double-stranded, circular; misc_feature (B) LOCATION 1...396; hypothetical: NO; anti-sense: NO) YPCHKRFSLTHSQKESPQSNSPKGVKITLILVRKFKTPSINTLSNKIAIIITCCFLSESVKLLGYSGLKNFRILRMLETSSHFLKSFRLKRYIGFLLISLALLITPFVRIDGAHLFLISFEHKQLHFLGKNL", "values": [
      {"measurement": "degree of colonization of the antrum", "setting": "H. pylori (strain AH244)", "value": "lower"}
    ]},
    {"molecule": "vac36: recombinant H. pylori outer membrane protein with terminal phenylalanine residue and C-terminal tyrosine cluster, aa SEQ ID NO: 5146, nt SEQ ID NO: 384 (protein, listed as Helicobacter pylori, misc_feature (B) LOCATION 1...527; hypothetical: YES) MKQNLKPFKMIKENLMTQSQKVRFLAPLSLALSLSFNPVGAEEDGGFMTFGYELGQVVQQVKNPGKIKAEELAGLLNSTTTNNTNINIAGTGGNVAGTLGNLFMNQLGNLIDLYPTLKTNNLHQCGSTNSGNGATAAAATNNSPCFQGNLALYNEMVDSIKTLSQNISKNIFQGDNNTTSANLSNQLSELNTASVYLTYMNSFLNANNQAGGIFQNNTNQAYENGVTAQQIAYVLKQASITMGPSGDSGAAGAFLDAALAQHVFNSANAGNDLSAKEFTSLVQNIVNNSQNALTLANNANISNSTGYQVSYGGNIDQARSTQLLNNTTNTLAKVTALNNELKANPWLGNFAAGNSSQVNAFNGFITKIGYKQFFGENKNVGLRYYGFFSYNGAGVGNGPTYNQVNLLTYGVGTDVLYNVFSRSFGSRSLNAGFFGGIQLAGDTYISTLRNSPQLASRPTATKFQFLFDVGLRMNFGILKKDLKSHNQHSIEIGVQIPTIYNTYYKAGGAEVKYFRPYSVYWVYGYAF", "values": [
      {"measurement": "level of colonization by H. pylori, as assessed by gastric urease activity and bacterial count assays", "setting": "H. pylori; C57BL/6 mice immunized orally, challenged with live H. pylori", "value": "significantly lower level of colonization"},
      {"measurement": "H. pylori burden", "setting": "H. pylori; bacterial counts in gastric tissue, mean ± SEM, oral immunization 4 times weekly with 10 μg CT, challenge with 10^8 H. pylori, 2 weeks post-challenge", "value": "55,800 ± 12,599 colony forming units"},
      {"measurement": "Urease Activity", "setting": "H. pylori; mean A550 ± SEM of duplicate antral samples, n = 10 mice/group, oral immunization 4 times weekly with 10 μg CT, challenge with 10^8 H. pylori, 2 weeks post-challenge", "value": "0.199 ± 0.080", "unit": "A550"},
      {"measurement": "numbers of CD4+ T cells and of IgACC recruited in the gastric tissues", "setting": "[1]; compared with unimmunized H. pylori-infected mice", "value": "Greater numbers"},
      {"measurement": "CD4+ antrum", "setting": "[1]; [3]", "value": "31 ± 8", "unit": "cells/mm^2"},
      {"measurement": "CD4+ cardia", "setting": "[1]; [3]", "value": "33 ± 9^a cells/mm^2"},
      {"measurement": "CD4+ corpus", "setting": "[1]; [3]", "value": "54 ± 8", "unit": "cells/mm^2"},
      {"measurement": "CD8+ antrum", "setting": "[1]; [3]", "value": "1 ± 1", "unit": "cells/mm^2"},
      {"measurement": "CD8+ cardia", "setting": "[1]; [3]", "value": "3 ± 2", "unit": "cells/mm^2"},
      {"measurement": "CD8+ corpus", "setting": "[1]; [3]", "value": 0, "unit": "cells/mm^2"},
      {"measurement": "IgACC antrum", "setting": "[1]; [3]", "value": "67 ± 13", "unit": "cells/mm^2"},
      {"measurement": "IgACC cardia", "setting": "[1]; [3]", "value": "24 ± 12", "unit": "cells/mm^2"},
      {"measurement": "IgACC corpus", "setting": "[1]; [3]", "value": "79 ± 16", "unit": "cells/mm^2"}
    ]},
    {"molecule": "H. pylori PPIase: recombinant PPI from H. pylori expressed in E. coli using pET-28b (protein, left off: small tags and cut ends, recombinant PPI from H. pylori expressed in E. coli using pET-28b) FIAIIEHLNDKSLSQRFMMKPIKTYDIKEEELAKTAYATIKTNKGNITLELFYKDAPQAVSNFVTLAKEGFYNGLNFHRVIAGFVAQGGCPYGTGTGGPEHRIKCEVAHNPNKHQRGSISMAHAGRDTGGSQFFLCFVDLPHLDGEHTVFGKITSAESLSVLDKIKQGDIIESVVFSPSL", "values": [
      {"measurement": "catalytic efficiency", "setting": "[2]; assay measured at 25° C.", "value": "2.06e+09", "unit": "M⁻¹ s⁻¹"},
      {"measurement": "kcat", "setting": "[2]; purified recombinant enzyme", "value": 1.6, "unit": "s⁻¹"},
      {"measurement": "initial velocity", "setting": "[2]; purified recombinant enzyme, substrate succinyl-Ala-Ala-Pro-Phe-p-nitroanilide", "value": 4.9, "unit": "μmole/min/mg protein"}
    ]},
    {"molecule": "SEQ ID NO: 677: H. pylori antigen of the therapeutic immunization study; number does not match the antigen list of Tables 6 and 7 (protein, listed as Helicobacter pylori, double-stranded, circular; misc_feature (B) LOCATION 1...531; hypothetical: NO; anti-sense: NO) SDCMALLEIIHYPSKILRTISKEVVSFDSKLHQQLDDMHETMIASEGIGLAAIQVGLPLRMLIINLPQEDGVQHKEDCLEIINPKWIETKGSIMYREGCLSVPGFYEEVERFEKVKIEYQNRFAEVKILEASELLAVAIQHEIDHLNGVLFVDKLSILKRKKFEKELKELQKKQKHK", "values": [
      {"measurement": "reduction and/or eradication of the H. pylori infection (therapeutic immunization effect)", "setting": "H. pylori (strain AH244)", "value": "did not differ from control"}
    ]},
    {"molecule": "SEQ ID NO: 465: H. pylori antigen of the therapeutic immunization study; number does not match the antigen list of Tables 6 and 7 (protein, listed as Helicobacter pylori, double-stranded, circular; misc_feature (B) LOCATION 1...498; hypothetical: NO; anti-sense: NO) MGCSFIFKKVRVYSKMLVALGLSSVLIGCAMNPSAETKKPNDAKNQQPVQTHERMTTSSEHVTPLDFNYPVHIVQAPQNHHVVGILMPRIQVSDNLKPYIDKFQDALINQIQTIFEKRGYQVLRFQDEKALNVQDKKKIFSVLDLKGWVGILEDLKMNLKDSHSPI", "values": [
      {"measurement": "reduction and/or eradication of the H. pylori infection (therapeutic immunization effect)", "setting": "H. pylori (strain AH244)", "value": "did not differ from control"}
    ]}
  ]
}
